Laboratory results: patent publication US20230312684A1 (PINETREE THERAPEUTICS, published 2023)

Assays:
[1] = molecular target: RSV-F (amino acids 1-529), (Extracellular Domain) protein (His tag), ABIN2006856 (respiratory syncytial virus) (UniProt P03420); assay: ELISA, RSV F coated, anti-human IgG-HRP
[2] = molecular target: SARS-CoV-2 (antigen of the ELISA of Example 17; protein not specified) (SARS-CoV-2); assay: ELISA by the method of Example 15, SARS-CoV-2 antigen

SEQ ID NO: 128, b1b2-Fc (NRP1, K358E, K373E, R513E, K514E, K516E) (Fc fusion)
EC50 [1]: 42.5 nM

SEQ ID NO: 139, b1b2-b1b2-Fc (NRP1, E319A, double b1b2) (Fc fusion)
EC50 [2]: 81.7 nM

SEQ ID NO: 204, b1b2-Fc-ACE2 (NRP1, K358E, K373E, R513E, K514E, K516E) (Fc fusion)
EC50 [1]: 91.5 nM
